Experimental data reported in publication PMC9270243.

Legend:
[1] = target: Csy complex (P. aeruginosa) (UniProt Q02ML9); assay: MST
Cas2/3 (P. aeruginosa) = Cas2/3 (P. aeruginosa) (UniProt Q02ML8); assay: SPR
[2] = target: Csy complex (Cas8f, Cas5f, Cas7f, Cas6f, crRNA);Cas2/3 (Pseudomonas aeruginosa;Pseudomonas …, UniProt Q02ML9;Q02MM0;Q02MM1;Q02MM2;Q02ML8 1-434;1-327;1-342;1-187;1-1076, |); assay: EMSA
[3] = target: T1, Csy complex (Cas8f, Cas5f, Cas7f, Cas6f, crRNA) (Pseudomonas aeruginosa, UniProt Q02ML9;Q02MM0;Q02MM1;Q02MM2 1-434;1-327;1-342;1-187); assay: EMSA
T1 sequence 1: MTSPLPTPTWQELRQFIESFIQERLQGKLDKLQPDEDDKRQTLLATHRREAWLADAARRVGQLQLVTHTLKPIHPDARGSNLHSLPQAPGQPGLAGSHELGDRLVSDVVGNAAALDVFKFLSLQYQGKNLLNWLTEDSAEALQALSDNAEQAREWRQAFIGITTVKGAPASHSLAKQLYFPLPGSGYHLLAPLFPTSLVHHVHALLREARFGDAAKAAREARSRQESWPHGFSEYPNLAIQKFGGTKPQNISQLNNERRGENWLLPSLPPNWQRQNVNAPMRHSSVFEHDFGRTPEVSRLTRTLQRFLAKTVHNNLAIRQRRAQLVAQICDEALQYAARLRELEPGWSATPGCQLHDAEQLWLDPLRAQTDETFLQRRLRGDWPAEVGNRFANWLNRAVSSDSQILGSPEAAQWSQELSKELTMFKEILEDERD
T1 sequence 2: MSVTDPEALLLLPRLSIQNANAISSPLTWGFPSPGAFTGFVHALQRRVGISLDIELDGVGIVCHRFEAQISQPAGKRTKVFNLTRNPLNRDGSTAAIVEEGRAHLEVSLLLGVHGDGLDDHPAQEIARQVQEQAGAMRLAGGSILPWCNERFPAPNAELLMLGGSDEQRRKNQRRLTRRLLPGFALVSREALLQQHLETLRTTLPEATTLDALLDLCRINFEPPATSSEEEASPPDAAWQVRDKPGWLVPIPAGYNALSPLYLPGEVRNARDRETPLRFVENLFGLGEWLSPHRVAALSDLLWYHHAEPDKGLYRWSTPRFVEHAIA
T1 sequence 3: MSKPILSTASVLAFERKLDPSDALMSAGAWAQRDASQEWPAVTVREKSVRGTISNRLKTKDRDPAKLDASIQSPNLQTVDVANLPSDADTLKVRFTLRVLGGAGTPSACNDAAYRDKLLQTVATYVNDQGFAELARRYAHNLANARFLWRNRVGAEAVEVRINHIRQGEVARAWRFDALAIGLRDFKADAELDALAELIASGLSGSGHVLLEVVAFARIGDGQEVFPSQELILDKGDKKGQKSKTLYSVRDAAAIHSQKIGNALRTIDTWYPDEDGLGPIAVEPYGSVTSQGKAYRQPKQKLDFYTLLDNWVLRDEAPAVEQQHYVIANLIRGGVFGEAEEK
T1 sequence 4: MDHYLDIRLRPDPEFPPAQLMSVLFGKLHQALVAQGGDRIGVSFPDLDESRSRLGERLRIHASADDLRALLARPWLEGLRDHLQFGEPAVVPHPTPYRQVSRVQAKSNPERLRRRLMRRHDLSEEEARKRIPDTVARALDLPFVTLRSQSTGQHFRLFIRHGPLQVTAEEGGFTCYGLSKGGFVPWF

Cas2/3 = target: T2, Cas2/3 (UniProt Q02ML8 1-1076); assay: EMSA
T2 sequence: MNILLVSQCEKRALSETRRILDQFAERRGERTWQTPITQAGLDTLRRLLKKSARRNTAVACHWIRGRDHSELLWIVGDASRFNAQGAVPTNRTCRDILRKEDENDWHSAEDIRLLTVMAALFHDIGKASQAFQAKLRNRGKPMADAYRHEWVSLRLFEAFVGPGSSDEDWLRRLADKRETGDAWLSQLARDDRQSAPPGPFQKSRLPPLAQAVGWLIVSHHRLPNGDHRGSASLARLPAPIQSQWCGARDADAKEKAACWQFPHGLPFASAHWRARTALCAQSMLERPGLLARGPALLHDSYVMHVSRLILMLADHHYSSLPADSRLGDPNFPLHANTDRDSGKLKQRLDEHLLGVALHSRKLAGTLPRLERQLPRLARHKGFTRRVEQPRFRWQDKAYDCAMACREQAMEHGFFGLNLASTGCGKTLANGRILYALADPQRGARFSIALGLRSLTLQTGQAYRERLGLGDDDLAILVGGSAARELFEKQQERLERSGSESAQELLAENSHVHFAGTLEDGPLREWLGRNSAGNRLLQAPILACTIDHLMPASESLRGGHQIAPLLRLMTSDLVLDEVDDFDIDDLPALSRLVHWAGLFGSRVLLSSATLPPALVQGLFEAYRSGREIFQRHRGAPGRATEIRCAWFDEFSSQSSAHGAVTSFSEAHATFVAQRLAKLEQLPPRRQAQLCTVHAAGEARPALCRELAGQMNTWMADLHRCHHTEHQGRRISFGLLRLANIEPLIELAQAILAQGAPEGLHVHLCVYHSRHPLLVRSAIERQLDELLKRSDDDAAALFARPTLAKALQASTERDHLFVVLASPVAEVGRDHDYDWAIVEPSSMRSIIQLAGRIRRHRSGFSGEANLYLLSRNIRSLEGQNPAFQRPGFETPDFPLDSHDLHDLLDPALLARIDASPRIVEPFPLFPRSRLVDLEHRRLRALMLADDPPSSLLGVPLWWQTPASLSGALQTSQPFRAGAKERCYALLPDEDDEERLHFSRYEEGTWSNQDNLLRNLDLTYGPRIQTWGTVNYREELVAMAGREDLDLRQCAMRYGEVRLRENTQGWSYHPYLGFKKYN

AcrIF23 (P. aeruginosa) = assay: MST
AcrIF3 (P. aeruginosa) = assay: MST

Which Kd [1] does the source give for AcrIF1 (natural protein) here?
Its Kd is 420 nM.

With AcrIF23 (natural protein) as the molecule, how does the Kd (Cas2/3 (P. aeruginosa)) read?
Its Kd is 3360 nM.

B1: 54 bp target dsDNA (dsDNA)
DNA 1: GGAAGCCATCCAGGTAGACGCGGACATCAAGCCCGCCGTGAAGGTGCAGCTGCT
DNA 2: AGCAGCTGCACCTTCACGGCGGGCTTGATGTCCGCGTCTACCTGGATGGCTTCC
What does the source list for B1?
binding result [2]: binds; binding result [3]: binds

B2: 54 nt ssDNA (ssDNA)
DNA: GGAAGCCATCCAGGTAGACGCGGACATCAAGCCCGCCGTGAAGGTGCAGCTGCT
Does B2 bind (Cas2/3)?
Result: binds

B3: Cas2/3 (enzyme)
chain: MNILLVSQCEKRALSETRRILDQFAERRGERTWQTPITQAGLDTLRRLLKKSARRNTAVACHWIRGRDHSELLWIVGDASRFNAQGAVPTNRTCRDILRKEDENDWHSAEDIRLLTVMAALFHDIGKASQAFQAKLRNRGKPMADAYRHEWVSLRLFEAFVGPGSSDEDWLRRLADKRETGDAWLSQLARDDRQSAPPGPFQKSRLPPLAQAVGWLIVSHHRLPNGDHRGSASLARLPAPIQSQWCGARDADAKEKAACWQFPHGLPFASAHWRARTALCAQSMLERPGLLARGPALLHDSYVMHVSRLILMLADHHYSSLPADSRLGDPNFPLHANTDRDSGKLKQRLDEHLLGVALHSRKLAGTLPRLERQLPRLARHKGFTRRVEQPRFRWQDKAYDCAMACREQAMEHGFFGLNLASTGCGKTLANGRILYALADPQRGARFSIALGLRSLTLQTGQAYRERLGLGDDDLAILVGGSAARELFEKQQERLERSGSESAQELLAENSHVHFAGTLEDGPLREWLGRNSAGNRLLQAPILACTIDHLMPASESLRGGHQIAPLLRLMTSDLVLDEVDDFDIDDLPALSRLVHWAGLFGSRVLLSSATLPPALVQGLFEAYRSGREIFQRHRGAPGRATEIRCAWFDEFSSQSSAHGAVTSFSEAHATFVAQRLAKLEQLPPRRQAQLCTVHAAGEARPALCRELAGQMNTWMADLHRCHHTEHQGRRISFGLLRLANIEPLIELAQAILAQGAPEGLHVHLCVYHSRHPLLVRSAIERQLDELLKRSDDDAAALFARPTLAKALQASTERDHLFVVLASPVAEVGRDHDYDWAIVEPSSMRSIIQLAGRIRRHRSGFSGEANLYLLSRNIRSLEGQNPAFQRPGFETPDFPLDSHDLHDLLDPALLARIDASPRIVEPFPLFPRSRLVDLEHRRLRALMLADDPPSSLLGVPLWWQTPASLSGALQTSQPFRAGAKERCYALLPDEDDEERLHFSRYEEGTWSNQDNLLRNLDLTYGPRIQTWGTVNYREELVAMAGREDLDLRQCAMRYGEVRLRENTQGWSYHPYLGFKKYN
What does the source list for B3?
Kd (AcrIF23 (P. aeruginosa)): 1200 nM; Kd (AcrIF3 (P. aeruginosa)): 31 nM
